Measurements: publication PMC6888640, “Key Factors for a One-Pot Enzyme Cascade Synthesis of High Molecular Weight Hyaluronic Acid” (International Journal of Molecular Sciences, 2019)
Each block holds one molecule with its values, some of them ahead of it.

Assays:
AtGlcAK = biological target: T1, AtGlcAK (Arabidopsis thaliana, UniProt Q93ZC9); conditions: substrate inhibition; 5 mM GlcA, 5 mM MgCl2, 100 mM HEPES pH 7.5, 25 °C
T1 construct: gene GLCAK1
T1 sequence (Q93ZC9 1-362): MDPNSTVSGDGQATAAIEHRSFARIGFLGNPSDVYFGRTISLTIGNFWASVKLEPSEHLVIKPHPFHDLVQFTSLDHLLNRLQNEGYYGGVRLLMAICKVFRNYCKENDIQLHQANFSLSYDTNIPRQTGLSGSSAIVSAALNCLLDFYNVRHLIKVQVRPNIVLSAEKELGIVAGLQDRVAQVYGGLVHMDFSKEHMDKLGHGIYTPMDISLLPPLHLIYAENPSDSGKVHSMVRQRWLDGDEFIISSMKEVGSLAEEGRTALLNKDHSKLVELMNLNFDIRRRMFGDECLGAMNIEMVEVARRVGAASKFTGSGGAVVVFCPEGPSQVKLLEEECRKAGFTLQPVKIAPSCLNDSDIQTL
Source text: initial rates by multiplexed capillary electrophoresis; uncompetitive substrate-inhibition fit on AtGlcAK

purified protein = substrate: Nc1ncnc2c1ncn2[C@@H]1O[C@H](COP(=O)(O)OP(=O)(O)OP(=O)(O)O)[C@@H](O)[C@H]1O; test: purified protein; conditions: apparent, substrate-inhibition fit, 5 mM GlcA, 5 mM MgCl2, 100 mM HEPES pH 7.5, 25 °C
[1] = substrate: O=P(O)(O)O[C@H]1O[C@H](CO)[C@@H](O)[C@H](O)[C@H]1O; test: initial rates by multiplexed capillary electrophoresis; Michaelis-Menten fit; type: biochemical, Arabidopsis thaliana; conditions: 5 mM UTP, 15 mM MgCl2, 100 mM HEPES pH 8, 25 °C
Source text: (§1) initial rates by multiplexed capillary electrophoresis; Michaelis-Menten fit on AtUSP

[2] = substrate: O=c1ccn([C@@H]2O[C@H](COP(=O)(O)OP(=O)(O)OP(=O)(O)O)[C@@H](O)[C@H]2O)c(=O)[nH]1; test: as above; type: biochemical, Arabidopsis thaliana; conditions: 5 mM Glc-1-P, 15 mM MgCl2, 100 mM HEPES pH 8, 25 °C
Source text: as §1

AtGlcAK (AtGlcAK): 2.87 mM
Molecule: Nc1ncnc2c1ncn2[C@@H]1O[C@H](COP(=O)(O)OP(=O)(O)OP(=O)(O)O)[C@@H](O)[C@H]1O [ATP]

B1: AtGlcAK (Arabidopsis thaliana) (protein)
chain: T1 sequence (Q93ZC9 1-362)
Km (purified protein): 8560 µM

B2: AtUSP (Arabidopsis thaliana) (protein)
chain: ASTVDSNFFSSVPALHSNLGLLSPDQIELAKILLENGQSHLFQQWPELGVDDKEKLAFFDQIARLNSSYPGGLAAYIKTAKELLADSKVGKNPYDGFSPSVPSGENLTFGTDNFIEMEKRGVVEARNAAFVLVAGGLGERLGYNGIKVALPRETTTGTCFLQHYIESILALQEASNKIDSDGSERDIPFIIMTSDDTHSRTLDLLELNSYFGMKPTQVHLLKQEKVACLDDNDARLALDPHNKYSIQTKPHGHGDVHSLLYSSGLLHKWLEAGLKWVLFFQDTNGLLFNAIPASLGVSATKQYHVNSLAVPRKAKEAIGGISKLTHVDGRSMVINVEYNQLDPLLRASGFPDGDVNCETGFSPFPGNINQLILELGPYKDELQKTGGAIKEFVNPKYKDSTKTAFKSSTRLECMMQDYPKTLPPTARVGFTVMDIWLAYAPVKNNPEDAAKVPKGNPYHSATSGEMAIYRANSLILQKAGVKVEEPVKQVLNGQEVEVWSRITWKPKWGMIFSDIKKKVSGNCEVSQRSTMAIKGRNVFIKDLSLDGALIVDSIDDAEVKLGGLIKNNGWTMESVDYKDTSVPEEIRIRGFRFNKVEQLEKKLTQPGKFSVED
notes: full-length synthetic codon-optimized gene, pET-16b(+), N-terminal His10 tag, E. coli BL21(DE3), IMAC
Km [1]: 580 µM
Km [2]: 440 µM
